From patent publication US20190119347A1 (HANMI PHARM, published 2019)
Bridge positions count the residues as written; N and C are the ends. Square brackets hold non-standard residues; d marks the D form. Ends that are not written are not given here. Aib = CC(C)(N)C(=O)O

Biological target: human glucagon receptor (human, UniProt P47871 26-477)
Test: cell-based or functional assay

Chain of human glucagon receptor (P47871 26-477): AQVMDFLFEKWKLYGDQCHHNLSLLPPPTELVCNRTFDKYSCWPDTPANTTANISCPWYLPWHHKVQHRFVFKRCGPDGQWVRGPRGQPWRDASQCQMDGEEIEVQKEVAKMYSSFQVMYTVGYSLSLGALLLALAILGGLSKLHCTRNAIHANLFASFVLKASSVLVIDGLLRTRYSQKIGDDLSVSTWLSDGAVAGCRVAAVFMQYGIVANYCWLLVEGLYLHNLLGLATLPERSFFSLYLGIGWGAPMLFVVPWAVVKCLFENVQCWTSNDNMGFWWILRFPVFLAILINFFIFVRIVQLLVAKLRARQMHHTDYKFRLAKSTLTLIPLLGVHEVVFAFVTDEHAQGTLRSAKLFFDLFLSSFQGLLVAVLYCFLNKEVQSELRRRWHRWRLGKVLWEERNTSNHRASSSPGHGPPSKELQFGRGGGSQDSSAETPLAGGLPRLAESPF

Y[Aib]QGTFTSDYSKYLDERRAKEFVQWLMNTC (lactam 16-20) [glucagon derivative of SEQ ID NO: 37]
In vitro Activity (Relative Activity to SEQ ID NO: 1, %); cAMP assay, from EC50: 776%
